T1: GST-MBNL1 (1-260) (UniProt Q9NR56 1-260)
T1 sequence: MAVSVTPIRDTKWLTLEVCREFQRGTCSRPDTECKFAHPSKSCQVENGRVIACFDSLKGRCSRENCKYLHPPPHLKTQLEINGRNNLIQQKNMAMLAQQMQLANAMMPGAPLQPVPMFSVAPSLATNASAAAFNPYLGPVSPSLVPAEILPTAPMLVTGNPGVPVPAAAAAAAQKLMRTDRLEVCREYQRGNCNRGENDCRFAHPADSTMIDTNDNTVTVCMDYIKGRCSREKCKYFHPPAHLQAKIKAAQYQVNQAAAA

B1: CUG repeat RNA probe (structured_RNA)
RNA: GCCUGCUGCUGCUGCUGCUGCUGCUGCUGCUGGC
B2: CHRNA1 polypyrimidine tract RNA probe (ssRNA)
RNA: UUUCUCCUUUUCUGUGGGUGGACAGGGUGACAUGGUA

Columns and labels:
GST-MBNL1 (1-260) = target: T1, GST-MBNL1 (1-260); test: EMSA; no PBZ; 10 mM Tris-HCl pH 7.5, 50 mM KCl, 1 mM DTT, room temperature 30 min, 20 ul; 6 ug protein, RNA 2.5 pmol/ul; then PBZ 15 min at room temperature; settings: protein: recombinant; tags: GST (N-terminal fusion); label: 5'-biotin
GST-PTBP1 = GST-PTBP1 (UniProt P26599 1-557); test: as above; settings: protein: recombinant; tags: GST (pGEX-6P-1); label: 5'-biotin
GST-PTBP1, sequence (P26599 whole entry): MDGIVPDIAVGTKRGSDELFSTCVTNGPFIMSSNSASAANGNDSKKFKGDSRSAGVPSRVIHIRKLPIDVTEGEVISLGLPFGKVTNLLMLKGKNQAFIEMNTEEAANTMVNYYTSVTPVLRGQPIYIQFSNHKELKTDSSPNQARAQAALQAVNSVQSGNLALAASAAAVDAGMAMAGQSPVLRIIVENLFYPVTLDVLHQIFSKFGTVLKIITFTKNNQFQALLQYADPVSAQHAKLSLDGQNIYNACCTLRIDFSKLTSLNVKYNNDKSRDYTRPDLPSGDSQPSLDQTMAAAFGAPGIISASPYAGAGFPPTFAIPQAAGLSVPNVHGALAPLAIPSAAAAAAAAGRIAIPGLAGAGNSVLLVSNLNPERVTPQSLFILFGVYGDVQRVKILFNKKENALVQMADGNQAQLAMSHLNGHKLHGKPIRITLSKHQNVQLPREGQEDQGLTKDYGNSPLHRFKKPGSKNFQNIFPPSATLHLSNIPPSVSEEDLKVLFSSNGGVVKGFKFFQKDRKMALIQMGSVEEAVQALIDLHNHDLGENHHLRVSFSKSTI

Row | Binder | binding result (GST-MBNL1 (1-260)) | binding result (GST-PTBP1)
1 | B1 | binds | 
2 | B2 |  | binds

From paper PMC4850456, “Phenylbutazone induces expression of MBNL1 and suppresses formation of MBNL1-CUG RNA foci in a mouse model of myotonic dystrophy”
